Molecular target: CD3 on human CD3+ Jurkat T cells (human) (UniProt P07766)
Assay: cell-based or functional assay

Chain of CD3 on human CD3+ Jurkat T cells (human) (P07766 23-207): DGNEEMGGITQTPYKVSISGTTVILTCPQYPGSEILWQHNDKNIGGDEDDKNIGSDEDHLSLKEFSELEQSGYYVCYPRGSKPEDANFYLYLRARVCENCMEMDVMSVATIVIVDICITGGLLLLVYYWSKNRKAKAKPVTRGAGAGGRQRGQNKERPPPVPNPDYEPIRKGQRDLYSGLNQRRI

In the case of “v2171, bivalent anti-CD3 pHAb conjugated mAb (UCHT1) (antibody)”, the EC50 (nM) of internalization of the pHAb conjugate, Jurkat cells (CD19-, CD3+) is reported as 13.2 nM and the internalization of the pHAb conjugate by Jurkat cells is reported as 2 nM.

— patent US20180193477A1
